Test: label from the status in PepcDB records
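Note: failed if final PepcDB status was selected cloned or expressed and not failed if soluble or beyond.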

MGKNLKGKELGKGLYQRKDGRYEARIFVRGTGKTFSIYGTNLQHLKKERNAYLANVSPGIAGYDPRISVSKWYEKWMLIYVVHSVKATTLSNYVNGFERVREYIGYMRLIEVRPTHILDMIKGLEEEGYARTTVIQSLSVVRQLFKKAYGGKMIPIDPVADIKLPKEEPGEIPDEKIMQEQEDEKCLSIYDTHRFLESCKNTRYYELFFILLHTGLRIGEALALEWCDLDFKHEKLRVYKTLNRVTKYYDLKGNELPERYSTIQITTPKKSASNRKVPLTDAVIAAFMSWKEKQDRDKEKLGKNWGKPNILLKKYPGLIFTTSSGRSYLPSSAQTECRRIVGIVNKHEIALAEKENRDPNLMDVHPHIFRHTFVTRCIQSGMDAATVKKIAGHSDEKMTNYYTHIEEEHIDDEYELYIQKYGTET
protein production: failed

MKRKAVNFHPQVDMSIGDKYLLKEFIDEGSFGYVWKAVNLENRQTVALKIPKDQERGDNTLSEGKEFIGSHHPNVISIYWMGRVDGVFLIEMEYFNGHKLSDELCETGFKSPRTFEEIYNLFFQILDGVEYIHSKHICHGDIKPQNILIDGKIAKITDFGTSKLIEDLFIKTIDGGGTWAYMAPEVAGSNRRYLNSDIYSLGVLLYKFLTGRTPHETANQLINNIPYPKPREINNNIPESVERIIMKLLKRNPDERYQNISEIKRDLEEALRSEDRNIISYNERAEVKYEDTDWIERVIRYYKNNEFDKAELLLKTEYENGNKSADVLYHIAYTYFQQGRYFESMDVIKDIDITQVEDIRQEALEDNLLYLKGKLFFELKKYEEAVKVYEKLVSRNPDDLNYRYKLACAYGLNDEQEKSIEILEDINKKTPGMLYIVKKLGHAYDQIKDFKKARAYFNYAIRLDPSDTIIRNRLEEYSKYFNYLGY
protein production: failed

MILKKEYSYESLRKKGAKKKKNFLCLQKYAMIYLVIRRYPYMSFGQKFKHFLAPLDEDDILEVEQDAEEEDAQTISQYEQQRSRMNKLPNDTKMVLFEPRSFDEADEIARRLKENKAAVVNLHKLQREYAQRTIDFLTGVIFALDGSIQKIGHNVILCTPNNVPVQGQITLDSGEDE
protein production: failed

MKAANSGRTAAALECFERVVKLQSTPVNWSYLAFCVARERQQFEHATRLCEEAVRREPRSSVLYLNLGKVYLLSGRKDDAIRTFRQGLLYERNTLIESELRRLGLRKPPVLNFLAREHPVNKYLGIMLKKLKIRLEHHHHHH
protein production: failed

AIAVSPLKTRCCSPSSQQQASEAREIEQPSTVWELDFYSRPVYGKDNKRIWELIVVDESFLLCHVESVPNDMINSAELRKRVERLLEQVTVKPKVVKFSRMPMFNMISLALKDLGFEVKPSRRTYRLYHVLRDREANIYSKMPGYRSENTLSTSYLYSTERLPDALRGEKFAFCTADYSFLYELQSSDTIPYCDIFNTGDSILLEKELPGIIVYSERADSLASWTAGAEVSFIKFREEELELVLECGINSHYRLAKIAEDHRLVEEAKTFEQMKWHMKGFHFYAIQSLKETSGTSHIKGLWLLNDFMEQ
protein production: not failed

RYENILLPTDGSEGADLAIEWGITLAEIYDATVHTLYSVDTSRFGGVEGSAEIHDALEETGQEALETVHERARDADVSIAGNIASGPAARAILSYSEEHDIDLIAMGTHGRSGLTRYLTGSVTETVVRNAAVPVCCVPMQ
protein production: failed

MLSKIRPKVKQPLERIGKTLASLGITPNQLTIIGFLITLLASYEFYLQNQILAGIILAVGAFLDALDGALARATGKVSKFGGFLDSTIDRLSDASILFGIALGGLVRWDVTFLTLIGSYMVSYSRCRAELAGSGTLAIGIAERGERIIIIFIASLFNAVKIGVYLVAILSWITFIQRVYEAKKRLEMG
protein production: failed

MASPNTTQPEIILSEEKKASLTTQSTSNNTNDGNILEEQKTLTSQQQPTPVPNTERTEDNVIENLKKTDLSNKDENTTISINTSTNTNINSNTNSNTNTNINSNINTDVNTNINTDINTNTNSNTNSNTNTNINTNANTNTNTNEKAQDEKFQYNGDVSKAFLSPPVFHLTEIMHDERCFKKTKGHVTVEINGDICIYGGMLHDKCVENFIRYVPGINLFEKMRLNSNDIVPRAFCSGNVITEDNKKNIIIFGGINEKDEIVDETYKFDFQAKKWELIGNKICPRARYKHASFSFNDFLYIHGGLDVNNSLLADMWCFSKNSWTPIKQIDRIPEPRYAHSLIFSFYGNAKLVFLFGGNKKGYNAALGDTWIFNINTNRWKEITNSSGSKPCARWGHSSQLFDNEWMIIYGGITNGWIDNYALSDMYALNIFTFSWFEVDISTSKNFDRGYYGSLCFLPYKKSLFVFGGTDNSEDHSDVFSMSPLVTYVSYKTLTGKIEQLNTRMKNINETSSENENMNISEFETKITELKEDINKINFMMKDFESKFCGKIKKLEKLNEQCEKLLSKNINTEELQNLEQRIRKLETSNVLMKHDSI
protein production: failed

EYSENNAPLFIRAVNSVASTTGAPPWANLVSILEEKNGADPELLVYTVTLINKTLAALPDQDSFYDVTDALEQQGMEALVQRHLGTAGTDVDLRTQLVLYENALKLEDGDI
protein production: failed

MKAKEVSLVALFVALTSVGAQISVSIGPVPLTLQVFFVILAGLVLGPKLGFLSILIYDILGALGIPVFAGFSGGIAHILGPTGGYIIAFPIATFIAGLGRGKVRYLTSLMGLLVIYLIGWMWLARFVGFNKAFILGVLPFIVPDIVKAATAVIIAERLQGNT
protein production: failed

MTYQQAGRIAVIKRILGWVIFIPSVLSTLISVLKFMYEHSEKKPGIDAVMMDFAHVMIEMMRFNTPFLNFFWYNSPLPDFHHSLNIGFWIIFILVFVGMALQASGARMARQAKFLREGIEDQLILEQAKGADGLTREQLAERIVVPRHTILVQYFPLYVLPVIVIVIGYFFFSLLGFL
protein production: failed

MLKPTHFVVAARVTLVLGGLAVAVLALGPFQGAERIVGLNDKAAHAIAFGGLLAVSFLAFPRMRRNDLAIAALVLGAGVEVAQLFGGRSASLLDWLADAAGVLTIYGASMIETVRKMAREQGDMTFAEIAATDRRRARRRAPAVFTPLVETPQTEHAPPLSFAQRAARRFPVS
protein production: failed

MTQSPYWQRIAAKAQAAQRPFFSLAPMEAVTGSVFRRVVMRAAAPDVFYTEFTNALSITHPKAKFTTRGRLYVDEAESPRPIVQLWGNSGEDFTKAAHEVKNQGYQAIDLNMGCPDMAVIKNHSGSDLIRHFDRAKEVIEGARQAELPVSVKTRLGFDDVHEYETWIPFLLQQQVPVLTVHVRTKMEMSKVPAHYELIDNLVQMRDTLAPATLLQINGDILDYQAGLKLAKAHPGVDGIMIGRGIFQNPYAFEPIPQPHSTRDMLELLRYQVDLYDQFIGLGLQGHFAPLQRFFKIYVRGMRHAAELRNELMQTKTTDDVRAIIDRLEAKLPAD
protein production: failed

MAVMDPWLIWLIVSAVLVLAEIFTLTAALGMLGVAALITAGSAAAGLSTPFQFLVFTVVSAVTLFFLRPVALRHLVQPQTQRFGVDALVGQAAYVVSDVTGREGRVRIGGEEWTARSYDETLVIPRGATVDVLEISGTTAFVYPRE
protein production: failed

QRALVLTAARGRGKSAATGLSIAGLIEKLRERKEKSIRIIVTAPSIASASQVMSFAKLGLEALGEELSVKVSDTGHIKSLRGDYFKLEYVPPDAAIEDEGELLIIDEAAALGINYIDLALRAWKKVALVTTVHGYEGSNKAFLRYLRRLIESKRIRVKWVNMEQPLRYAKGDPIEKWLYDALLLD
protein production: failed

MHDIILMPCPEVSIIILTRNGKATIGECLKQVYAQNYTNFEVIVIDSASTDGTPDIVNNFPVRFFSIDVKDFGHGKTRNYGAKLSKGKYLAYLTQDASPFNEHWLENLIRNFSDEEVAGVYSRNVPRSDCDPFEARYISSGWGSDREVKSMQNCRNYKKLVFFSNTSSCIRKDTWEKFPFNELLVQTEDQDWSKRVLEAGYKIVYDPGSVVVHSHNNSLKILFKKYFDAGTAHIQIFKNRNNVYLPLIPFFSVISTFLDIRFMFFNNYETINIIKWVPRAVVRHFVEATAFWLGLHFDILPQALKRKFTASGHY
protein production: failed

MKLERILPFSKTLIKQHITPESIVVDATCGNGNDTLFLAEQVPEGHVYGFDIQDLALENTRDKVKDFNHVSLIKDGHENIEHHINDAHKGHIDAAIFNLGYLPKGDKSIVTKPDTTIQAINSLLSLMSIEGIIVLVIYHGHSEGQIEKHALLDYLSTLDQKHAQVLQYQFLNQRNHAPFICAIEKIS
protein production: failed

MDVLSPGQGNNTTSPPAPFETGGNTTGISDVTVSYQVITSLLLGTLIFCAVLGNACVVAAIALERSLQNVANYLIGSLAVTDLMVSVLVLPMAALYQVLNKWTLGQVTCDLFIALDVLCCTSSILHLCAIALDRYWAITDPIDYVNKRTPRRAAALISLTWLIGFLISIPPMLGWRTPEDRSDPDACTISKDHGYTIYSTFGAFYIPLLLMLVLYGRIFRAARFRIRKTVKKVEKTGADTRHGASPAPQPKKSVNGESGSRNWRLGVESKAGGALCANGAVRQGDDGAALEVIEVHRVGNSKEHLPLPSEAGPTPCAPASFERKNERNAEAKRKMALARERKTVKTLGIIMGTFILCWLPFFIVALVLPFCESSCHMPTLLGAIINWLGYSNSLLNPVIYAYFNKDFQNAFKKIIKCKFCRQ
protein production: failed

MSFNTIIDWNSCTAEQQRQLLMRPAISASESITRTVNDILDNVKARGDEALREYSAKFDKTTVTALKVSAEEIAAASERLSDELKQAMAVAVKNIETFHTAQKLPPVDVETQPGVRCQQVTRPVASVGLYIPGGSAPLFSTVLMLATPASIAGCKKVVLCSPPPIADEILYAAQLCGVQDVFNVGGAQAIAALAFGTESVPKVDKIFGPGNAFVTEAKRQVSQRLDGAAIDMPAGPSEVLVIADSGATPDFVASDLLSQAEHGPDSQVILLTPAADMARRVAEAVERQLAELPRAETARQALNASRLIVTKDLAQCVEISNQYGPEHLIIQTRNARELVDSITSAGSVFLGDWSPESAGDYASGTNHVLPTYGYTATCSSLGLADFQKRMTVQELSKEGFSALASTIETLAAAERLTAHKNAVTLRVNALKEQA
protein production: not failed

MDRAAFPDCCVFLFGFFRRDFGAAGLYGMHDAGLLTGVQLVVAAITLTLFMLCIAQFMMTVKERGFKMALAISGFIFPSALLAGFIVNTLMTALRVKL
protein production: failed

MINMKVAISMDVDKISNSFEDCKYFLIVRIDDNEVKSTKVIFNDESGKKSIVKENVNAIICKNISEENYKKFSKKIEIYHAEGDDVDKNISLFIEGELSKISNP
protein production: not failed

MVVRQIRALLSSLLWAWRRARLQGRSAFQLVRACLREGAKGPRHFARRMAAYASGGSASPPPVSLDAYESWHSALPQLEVPADSGMISVIIPVCNTPELFLREAIESVRTQTYQNWEICIHDDASNEPHVGRILAEFKKRIPNLRVTRSETRSGIAATTNAALASARGRWVTFLDHDDVLDRNALAAVVDCHIKTGSAVVYTDHDMLGEDGRLRNPYFKPDWNYDLFLAQMYLGHLVSFEHDLIKRVGLTRSECDGSQDYDLVLRCVAAGAKVGHVPRVLYHWRMHAGSTAANADSKPYAHDSGKRAIQYHVDAVYPGAQVEDGPHLFCYDVRYPYAQHAPKASIIIPTRDGLDLLRPCIESIQGRTDYTNFEIIVVDNGSKDPATLEWLDAMSNEPWFRVLQADVPFNWSALNNLAAASAEGEVLVFLNNDTEVASADWLQRLVENALRPDVGACGALLLYADGSIQHAGVVVGMGGWADHVFKGQQPIHHQHLFVSPILRREVLAVTGACVAISRANFDAIGGFDESFVVCGSDVELCLRAMANGKRTVYVPEAILIHHESKTRDPRVIPESDFVRSAQAYSPYRESGDPFYSPNLDYMSPSPALRGAQADA
protein production: failed

MGHHHHHHSHGQTFAGVIRGVQSYGFFVQIEALQVEGLVHVSSPKDDWYEYRSRQQRLIGRKNRRQFGLGDRVEVEIRNVDYYRQQIDLGVLPLPEAQSETSDREP
protein production: not failed
